Data on 1 molecule can be found in article PMC7888556 (Biochemical and biophysical research communications, 2017).

The target of this assay is T1, CEP192-WT (residues 507-1065 of human CEP192, C-terminal V5 and 6XHis tags) (human, UniProt Q8TEP8 507-1065).
T1 sequence (looked up): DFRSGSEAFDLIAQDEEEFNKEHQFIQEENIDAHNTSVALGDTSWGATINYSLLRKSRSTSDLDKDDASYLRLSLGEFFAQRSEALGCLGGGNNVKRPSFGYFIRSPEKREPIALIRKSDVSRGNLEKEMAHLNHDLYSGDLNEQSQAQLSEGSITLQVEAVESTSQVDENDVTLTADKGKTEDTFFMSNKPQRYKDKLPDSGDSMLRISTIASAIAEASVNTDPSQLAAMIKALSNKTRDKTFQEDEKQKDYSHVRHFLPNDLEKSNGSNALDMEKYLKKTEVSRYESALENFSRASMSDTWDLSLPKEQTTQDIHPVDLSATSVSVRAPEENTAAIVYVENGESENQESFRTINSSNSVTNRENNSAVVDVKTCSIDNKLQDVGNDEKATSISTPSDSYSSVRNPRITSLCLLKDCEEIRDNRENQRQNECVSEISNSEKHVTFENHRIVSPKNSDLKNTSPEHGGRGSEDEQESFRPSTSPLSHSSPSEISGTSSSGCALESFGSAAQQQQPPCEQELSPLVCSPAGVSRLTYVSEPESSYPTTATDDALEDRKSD
Description: pull-down.

B1: Human PP1β (type one protein phosphatase, purified) (enzyme, UniProt P62140 1-327, looked up)
chain: MADGELNVDSLITRLLEVRGCRPGKIVQMTEAEVRGLCIKSREIFLSQPILLELEAPLKICGDIHGQYTDLLRLFEYGGFPPEANYLFLGDYVDRGKQSLETICLLLAYKIKYPENFFLLRGNHECASINRIYGFYDECKRRFNIKLWKTFTDCFNCLPIAAIVDEKIFCCHGGLSPDLQSMEQIRRIMRPTDVPDTGLLCDLLWSDPDKDVQGWGENDRGVSFTFGADVVSKFLNRHDLDLICRAHQVVEDGYEFFAKRQLVTLFSAPNYCGEFDNAGGMMSVDETLMCSFQILKPSEKKAKYQYGGLNSGRPVTPPRTANPPKKR
Turning to B1, the binding result was “binds”.
